Where two headings read alike, the source gives them in different places. Blank lines part the entries; values can stand above or below the binder they belong to.
How the values were obtained:
[1] = target: T1, BRD4-ET domain (for ITC) (UniProt O60885 600-678); test: ITC
[2] = target: T1, BRD4-ET domain (for ITC); test: ITC; remark: listed apart in the source
[3] = target: GST-BRD2^632-710 (UniProt P25440 632-710); test: pull-down
[4] = target: GST-BRD3^562-640 (UniProt Q15059 562-640); test: pull-down
[5] = target: GST-BRD4^600-678 (UniProt O60885 600-678); test: pull-down
[6] = target: TurboID-BRD4-ET (UniProt O60885 600-678); test: proximity labelling

Chain of GST-BRD3^562-640 (Q15059 562-640): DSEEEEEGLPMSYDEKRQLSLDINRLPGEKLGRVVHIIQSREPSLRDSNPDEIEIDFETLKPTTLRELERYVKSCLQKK
Chain of GST-BRD2^632-710 (P25440 632-710): as the sequence (Q15059 562-640) above, with G8S, L9R, R25K, S40A, D51E, T63S, K73L, Q77R counted along it

B2: His6MBP-ASXL1^537-587 (domain or fragment)
chain: EKKPRLEDRQSFRNTIESVHTEKPQPTKEEPKVPPIRIQLSRIKPPWVVKG
Kd [2]: 535 nM | Kd [1]: 1300 nM | binding result [3]: binds | binding result [4]: binds

B3: His6MBP-ASXL1^537-587 Q575A (domain or fragment)
chain: EKKPRLEDRQSFRNTIESVHTEKPQPTKEEPKVPPIRIALSRIKPPWVVKG
binding result [5]: binds

B7: His6MBP-ASXL2^582-634 (domain or fragment)
chain: EKRPRVTENRQHQQPFQVSPQPFLNRGDRIQVRKVPPLKIPVSRISPMPFHPS
Kd [1]: 1100 nM

Second part, the binder after the results:

Kd [1]: 2000 nM
B1: His6MBP-ASXL3^977-1027 (domain or fragment)
chain: EKRARIEDDQSTRNISSSSPPEKEQPPREEPRVPPLKIQLSKIGPPFIIKS

binding result [5]: binds
B4: His6MBP-ASXL1^537-587 with the motif arginine mutated to alanine (domain or fragment)
chain: EKKPRLEDRQSFRNTIESVHTEKPQPTKEEPKVPPIAIQLSRIKPPWVVKG

fold enhancement of BRD4-ET binding over full-length ASXL1 [6]: 3.5 fold | fold enhancement of ET-domain binding over full-length ASXL1, peptide […] [6]: ~3 fold
B5: ASXL1^Y591X (domain or fragment)
chain: MKDKQKKKKERTWAEAARLVLENYSDAPMTPKQILQVIEAEGLKEMRSGTSPLACLNAMLHSNSRGGEGLFYKLPGRISLFTLKKDALQWSRHPATVEGEEPEDTADVESCGSNEASTVSGENDVSLDETSSNASCSTESQSRPLSNPRDSYRASSQANKQKKKTGVMLPRVVLTPLKVNGAHVESASGFSGCHADGESGSPSSSSSGSLALGSAAIRGQAEVTQDPAPLLRGFRKPATGQMKRNRGEEIDFETPGSILVNTNLRALINSRTFHALPSHFQQQLLFLLPEVDRQVGTDGLLRLSSSALNNEFFTHAAQSWRERLADGEFTHEMQVRIRQEMEKEKKVEQWKEKFFEDYYGQKLGLTKEESLQQNVGQEEAEIKSGLCVPGESVRIQRGPATRQRDGHFKKRSRPDLRTRARRNLYKKQESEQAGVAKDAKSVASDVPLYKDGEAKTDPAGLSSPHLPGTSSAAPDLEGPEFPVESVASRIQAEPDNLARASASPDRIPSLPQETVDQEPKDQKRKSFEQAASASFPEKKPRLEDRQSFRNTIESVHTEKPQPTKEEPKVPPIRIQLSRIKPPWVVKGQPT

Kd [1]: 1360 nM
B6: His6MBP-fused ASXL1^567-587 (domain or fragment)
chain: PKVPPIRIQLSRIKPPWVVKG

From publication doi:10.1101/2021.07.15.452438 (bioRxiv, 2021)
